Experimental data published in publication PMC10348681, “Reversible phase separation of ESCRT protein ALIX through tyrosine phosphorylation” (Science Advances, 2023).
Substitutions are numbered along the chain they refer to. Names may count otherwise.

T1: ALIX1−868∗^Strep (full-length ALIX with P801G and a C-terminal strep tag) (UniProt Q8WUM4 1-868, P801G)
T1 construct: the asterisk denotes P801G; Monomeric by AUC; source: E. coli, purified (Strep-Tactin Sepharose, Q-Sepharose HP, Superdex 200); not shown: Strep tag, C-terminal, kept
T1 sequence (looked up): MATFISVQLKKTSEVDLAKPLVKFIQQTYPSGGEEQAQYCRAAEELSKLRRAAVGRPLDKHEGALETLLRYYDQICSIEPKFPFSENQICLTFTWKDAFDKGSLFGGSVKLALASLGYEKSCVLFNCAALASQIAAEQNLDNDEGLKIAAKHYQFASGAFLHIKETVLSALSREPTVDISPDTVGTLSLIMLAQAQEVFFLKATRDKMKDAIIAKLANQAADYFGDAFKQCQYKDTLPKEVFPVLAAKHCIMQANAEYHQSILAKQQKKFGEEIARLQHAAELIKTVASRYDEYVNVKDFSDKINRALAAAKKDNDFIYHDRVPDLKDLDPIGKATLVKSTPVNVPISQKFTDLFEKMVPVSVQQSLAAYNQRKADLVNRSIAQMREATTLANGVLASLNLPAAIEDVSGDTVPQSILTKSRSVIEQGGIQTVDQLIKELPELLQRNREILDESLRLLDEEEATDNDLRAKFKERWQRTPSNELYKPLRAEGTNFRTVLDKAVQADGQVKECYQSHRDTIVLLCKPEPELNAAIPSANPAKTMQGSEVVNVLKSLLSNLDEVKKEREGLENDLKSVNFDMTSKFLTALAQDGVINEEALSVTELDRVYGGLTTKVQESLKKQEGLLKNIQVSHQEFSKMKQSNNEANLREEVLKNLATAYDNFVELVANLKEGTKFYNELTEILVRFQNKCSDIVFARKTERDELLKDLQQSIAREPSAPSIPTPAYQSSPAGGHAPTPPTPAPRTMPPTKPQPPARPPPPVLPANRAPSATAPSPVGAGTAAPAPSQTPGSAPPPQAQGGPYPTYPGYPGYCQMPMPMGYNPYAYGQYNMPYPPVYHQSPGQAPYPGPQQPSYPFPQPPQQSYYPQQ

T2: ALIX-Bro1 (Bro1 domain of ALIX) (UniProt Q8WUM4 3-392)
T2 construct: Bro1 domain of ALIX; residues up to 349 are spoken of
T2 sequence (looked up): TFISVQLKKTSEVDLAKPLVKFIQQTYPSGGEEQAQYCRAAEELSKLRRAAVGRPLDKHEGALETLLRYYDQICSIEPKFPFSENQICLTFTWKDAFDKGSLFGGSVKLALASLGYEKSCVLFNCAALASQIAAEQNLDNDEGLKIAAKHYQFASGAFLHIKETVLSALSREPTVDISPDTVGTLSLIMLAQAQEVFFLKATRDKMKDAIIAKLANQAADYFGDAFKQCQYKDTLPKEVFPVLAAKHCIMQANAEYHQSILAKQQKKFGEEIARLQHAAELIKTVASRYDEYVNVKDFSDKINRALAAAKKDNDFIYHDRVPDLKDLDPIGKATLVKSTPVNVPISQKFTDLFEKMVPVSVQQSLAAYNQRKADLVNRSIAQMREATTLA

B1: CHMP4C121−233^S191C,AAA (domain or fragment, UniProt Q96CF2 121-233, looked up)
chain: ENMDLNKIDDLMQEITEQQDIAQEISEAFSQRVGFGDDFDEDELMAELEELEQEELNKKMTNIRLPNVPSCSLPAQPNRKPGMSSTARRSRAASSQRAEEEDDDAKQAAAAAT
notes: codon-optimized synthetic gene; also called CHMP4C with three alanine substitutions in its α6 motif (I225A, L228A, W231A); not shown: GB1, N-terminal, cleaved
B2: CHMP4C121−233^S191C (domain or fragment, UniProt Q96CF2 121-233, looked up)
chain: B1 chain with A105I, A108L, A111W
notes: codon-optimized synthetic gene; Monomeric by AUC; also called charged multivesicular body protein 4C C-terminal fragment; not shown: GB1, N-terminal, cleaved
B3: CHMP4B121−224^S184C (domain or fragment, UniProt Q9H444 121-224, looked up)
chain: DNMDIDKVDELMQDIADQQELAEEISTAISKPVGFGEEFDEDELMAELEELEQEELDKNLLEICGPETVPLPNVPSIALPSKPAKKKEEEDDDMKELENWAGSM
notes: codon-optimized synthetic gene; Monomeric by AUC; also called charged multivesicular body protein 4B C-terminal fragment; not shown: GB1, N-terminal, cleaved

How the values were obtained:
Conditions in all cases: both partners purified
[1] = biological target: T1, ALIX1−868∗^Strep (full-length ALIX with …); test: NMR titration; 30 μM 15N/2H-labeled CHMP4 construct with 90 μM unlabeled ALIX1-868* Strep; cross-peak heights; 30°C, 20 mM sodium phosphate (pH 6.5), 1 mM TCEP, 2 mM EDTA
[2] = biological target: T1, ALIX1−868∗^Strep (full-length ALIX with …); test: ITC; as the other ITC but with 150 mM NaCl; CHMP4C construct injected into ALIX1-868* Strep; 25°C; for the AAA mutant 1500 μM into 300 μM ALIX
[3] = biological target: T1, ALIX1−868∗^Strep (full-length ALIX with …); test: ITC; 300 to 500 μM CHMP4 construct injected into 30 to 50 μM ALIX1-868* Strep or Bro1 in the cell; 25°C; 20 mM sodium phosphate (pH 6.5), 1 mM TCEP, 2 mM EDTA; independent site binding model
[4] = biological target: T2, ALIX-Bro1 (Bro1 domain of ALIX); test: as above

Binder | binding result [1] | Kd [2] [µM] | Kd [3] [nM] | stoichiometry N [3] | Kd [4] [nM]
B1 | binds | – | – | – | –
B2 | – | 6.1 ± 0.7 | 600 ± 100 | ~1 | 900 ± 100
B3 | – | – | 900 ± 100 | ~1 | 1000 ± 200
